The nature of this data set: label from the status in PepcDB records.
In the case of “MIGEQPGDIFRRGEILNHTYEIEGVLGRGGTGEIYRARNLISGRIVAVKALNRRFSGNDDYIGLMRREEQLRDVIDDAVVRYTECSRSDGGHVFLVMDHIEGPSLAQAMEAGRIEARDLLIVAHRVAEGLRAAHRHGIVHRDLSPDNIILRGGAPERATIIDFGIAKDLSAGAQTIVGNDFAGKYEYAAPEQIDGRAEPRSDLYALGATLLAAFRGEAPFAGATPGEIVRRKGRPLDTEGVPEPLRGLIDRLAAPEAERRPASAAAVVEELDRLLRPQAEPDRRRRVWPALAALLLLAVLAVGGWIALRPPLAEPYRLTASAADLAGEAPDRAAAARIAAAYARAAGHESHGLRIARGAPEGWADAAAEVLALAATLDDWRLALNGAEAALSGRAPDARSAAMVETRFRDWASRRGFEPRLQIEVVPPPLDPQAVSALLQRHADCGPLSEGGTEGVITGAVATAETAAALERALADLRGDRPLHLAITVLNPAICAVRQALPDRPAQGLSIWLGEAATGAPNLAGIYGPGDYPLVEIRLPAGMSGLALWVGLVDVTGSVLNLLPNVYSDESRIDRLGTVANGVRTIRVMPLEFQVAGGTQLFALQVEARDFGRSELVAVVSRGDLFALRRPKDESVASFTEALSALRRDDPDRLVAVTRRLLESRPSR”, the protein production entry is listed as “failed”. On to “MIGFIGSVFSPWYRWSGRKEPQNHCCLNVATYGPGGRFTMTDRGRAALRQSPDTLTVGPSRMHWTGTQLIVEVNEISSPPLVSPVKGRIVLTPTGITDVEVTLKDDGSHIWRPFAPTARIEVDLTQGHRWHGHGYFDANFGTAALEADFRFWTWGRYPVADGAACFYDATRRDGSRLELGLHVAADGRARLIQPPPEARFARSRWLVERHTPADPGTRPRQVMSMLDAPFYSRAMVETTVFGQKTVGVHEALDLRRFRSPLLMPMLAVRVPRRP”, for which the protein production result is on record as “failed”.

In the case of “MIGKEVLNYTIVSLIGKGGMGSVYLAEHKYIKQQKVAIKVINSDMVNDFTRQRLKEEAEHLASLNHQNIVRFHDYHIDELGSIYLIMEYADGISLDKYIQTVSGLIVEDKICPLFEPILDAVEYAHEHNIIHRDIKPANIIITKEGIPKILDFGIATIINRESVEKDDMVMGTPSYMSPEQVRGDHLDSRSDIYSLGVMLHQMLTGNAPYDTTTLTEYDINKKVVEEPLPRMRTYYKYVSDKVQKIVDKATAKEPGERYQTCDDFKKALHRVIYPPKIPKWVWTSVAAIVLLMIGGGVYFWDYNRTKVYYYKDYVEQWGVPQGIGELSSREMSHVNRLYRFEYKKHKLQRMSHVNSKENIIEDGESERNERPLDMLLYYTDKGNISRAKVLDRSGKVLYVKSYNDKLNTVIFQYDDEYGTEKTLGAQTIGYVRALEDNGVEKGKISRWLLEYDENGYVSTIRYAGFQNVLVGDAHNIYGRKYVRDEKGRVLSEHYLSFDGTPKATKWGLGMKKFYYDENDNWVKAEYLTVDGKPAYDDADGIGVYVMEYDKYGNVVYALHQDADGKLMLPKKNGVAGIKYIYDQHGFPIEASYLDIDRKACFIPNDGFSKVVRKFDDNGYIINQTFYDVDGNQCLSNDGNSSAKYINDNRGNVQEMWFYGLDGKLNEINEGYAGVKLNYDSIGNIIEYVTYGIDQKPCLKSDGTAGYKAEYNDMNLITKLVNIGVDLSPCKDNNGIVIAARDYDKRGNQIKVSFYDAGGKTLVLSNENIAGWNSVYDDNGNETERSFFDDKNNLTVCAGSCAKWISKFDEQGNETNLRYYNLSGKLMMVNGSAGANYKRDKRGNILEKIEIGTDEQLASGKLIARYKYDKFDNQIEFSVYDRNNKPALNSLDYHKYVCIYNSRNQRIEIEYYGKDGELTSYNNDKYAIQKDEYDERGYIVRTSYYGKDKQLVVSNEGWASSTREYDVLGNVLKQSFFGIDGKPTDPKVMVPEGLCRYDRWGNRIYLAAGDGKGHLIINPKTGWSIQKSEYNSRGKLLSEAYFDENEKPLISRMDGYHKAVISYTSSGNEKEKCYYDIMNKPMLCPDGYFKEVYEYNDNQQAISLSYLGVNGKSIDCKDGYSKIELTYNKDGEMESRKYTNASGRILLTQKWNGKEWVNSSPEPISRNWQQDVRKFNAELPIDFGENTKHLVASSFLVTGSNSCELSFKTPKSKYEMTEAEVNEYFASIKLVVTKIKSESLPSSVVITGILFDSKGRQLRSIRK”, the protein production entry is “failed”.

On to “MIGLMIRVAGQLGRYARLLPATAGMVLVLQVAAQADVLTINGGAKFTNYPMVTLGINAALHGGTVQAMRFSIDDSTWTDWEPVAASKRFKLTEPLSLSFYDVFLQFQQDGVAVPDPPYPAAIVYDDLIDTGFFGGQGVALLGGTGSDRGKGVVVQPDGKLLVVGTVEQAAGNTDIVLWRLTAQGEPDTGFGVQGSVVIDAGTADRAAGVALQGDGKILVLGTVGSATTAWEVRRYDSAGVLDTSFGTGGKYQEGASGANEAGNLLVQPDGRIVIIGSRDVAGAKKIQVIRLTATGVLDSAFNGNTGYYRPNLPGNSFGNGVALQADGKILLVGTYANPSGETDLFVQRLKTDGTLDNFNDGLNNFFMAGDAGNDEGLGIAVQPDGKIVVVGAYQWGAGDTDIWVLRLNENGTRDNDFNAPVGDYKDGDVYNDRAEALVIQPDGKIVVVGSFGYATDTDILVFRLNADGTTDNTIYNFYGFYTINSGDDEGQGVALQPDGNIVLVSTFTREEGDTDIHVHRIFGRKETLSVSTTGGGSVADDLGAFTWVDLSGEGDYLQGDSVALTAAPATGYVFTGWGGDCAGTSPVCTVTMDGAKNVTASFSLDRPAAPTGLSGVPGNGTAGISWTASQESGITGYKVYYGITSGNYATPDPVGTTPAHVISGLMNGVTYYIAVSVLKNGVEGPKSAEITVTPGINLSVTVVGTGGGTVSSAPGGISCLDGSGCSAVFNAAPVVLSATPSAGSIFAGWSGACSGTDGCTVTQYGPVAVTATFTKMPPVKLTAGTTSYYSTIAEAYAACIGGTSCTIETQATELAGNVTLANAIAVLFKGGYDATFSSSPGLTTLQGVVTVGRGSLTAQNVVIR”, for which the protein production result is on record as “failed”. For “MIGLSKSRGALSMENQKMPEYETIRAAVAGEKWAVEKVVDCYKDEIDRLSTVAVRQPDGSTKQEINEDMRQSITKKLIEALPQFPLEEMEKGNVR”, the protein production result is reported as “failed”. In the case of “MIGVVATLKVQPAKAAEFEKVFLDLAAKVKANEPGCLVYQLTRSKTEEGVYKVLELYASMDALKHHGGTDYFKAAGAAMGPTMAGAPVIEYLDAVE”, the protein production entry was “not failed”. With “MIGWTLGQYFFIRYLKMTCYFLGGIFVLALLIDFTENSGRLSSLPRYTAKDAFLISVLRIPFIMQQLIPFIALFSAMAMLISLNRKSELVVTRSIGISAWQFLMPACFGAFLFGLFSILLVNPLAAWGFSQAERMMTEWRSKNNNVLTSLHNTRILWLTQRTHSGRTTIGAKSITDQGLSLIDATFVQYNDNATIKNWINSRKATLINGAWLLTDGTIYKIGHPPEKFSELQIQTTLKPEFLTERLVNPATIPFYQLPTKIMIARSFGYSANNFDMYLQSLIALPALLIAMTLIAAVVSLNFTRFGQSKILILGGVIAGFSLYVISILVQAFGNAGYIPPIIAAWTPVFIALFLGISFLLHKEDG”, the protein production result is recorded as “failed”. For the sequence “MIIDINRLDRAFDLIKEGVSKGVFPGAVAAVGTRERVIRLESFGNRCLYPEKLSMNKDTLFDLASLTKVVATNTLFMIFLEKGLISVYDNVSYYLEKFKGKNKDDVTIFNLLTHTAGFVPCKPLYKLCKGYEDSIDYICRCGLSYKPGTKCVYSDFSYILLAYILEKIGGDTLDILCDRYIFKPLYMENTTFKPKGNNIAATEIDKKTKKPLIGVCHDENGRFFGGISGHAGLFSDIYDLCKFSNMLVNEGKGIISYASFKAMTTNHTLGLEDNRGYGWCIKGDKNSFMGDIAFPETFGHNGFTGTSLWVDIKNNIYAILLTNRVHPTRDNLRIIRFRRVFSNAVLASLTRLEHHHHHH”, the protein production result is recorded as “failed”. As for “MIIKFTVVICTYNGAKRLPKVLDELQNQIDTEAISWEILVVDNNSTDSTKQVVQQYQNTCFKPGQLRYSFEPEQGLAIARQHAVTAARGELIGFLDDDNIPSLTWVASAYLFAQNHPCAGAYGSRIQGEFEVPPPDDFKRIAALLALTERGSKKLLYEPKKKVLPPGAGLVVRKQAWLENVPKRCFLQGRVCEPYLPGEDLEALLHIQQAGWDIWYNPEMQITHQIPHWRLKKDYLVDLCRGIGLSRYHTRMLSVKPWQAPVLFWLYIFNDVRKLILHLYKYRGRVKSDLIAACELELFIGSLLSPPYIWKAYIKKYFRKQRPVSFSSSVRCADYTQN”, the protein production entry is given as “failed”. On to “MIIKGRAHKFGDDVDTDAIIPGPYLRTTDPYELASHCMAGIDENFPKKVKEGDVIVAGENFGCGSSREQAVIAIKYCGIKAVIAKSFARIFYRNAINVGLIPIIANTDEIKDGDIVEIDLDKEEIVITNKNKTIKCETPKGLEREILAAGGLVNYLKKRKLIQSKKGVKT”, for which the protein production result is given as “not failed”. As to “MIILKGNKIDYLFLLFGLLGLSTMIYSYLSFSLDVISRNSCTINSVISCSSVENSIYSTFLGIKLYYYGMAYFSAIIVLSLLVVKGTVKNIIGYVISLLSIIASIISVYLIYTEIFLLGHMCIVCTLAHVSIFSVLILSVIKFKV”, the protein production entry is listed as “failed”. On to “MIINITILEDNESDFITLSDSIKKWAANTGILINIIWLNSYKKFIKSLPTLKCDLFFSDIELNCNNSFTGIDACKQLRESGYTGIIIFLTAFKEYVFDGYDVQAFNYLLKPINYGTINNCLDKFIHLFSREFYYYHKGNDIISIPYNDIMYIEKNGHDVILHTTSNVFVERISLNEISKRLPVFFIRAHKSYIVNINKVLSLRINELFLPNNVTIPVSRSYLTNIKKKLLEIAR”, for which the protein production entry is on record as “failed”. “MIIPTVPTTDELLDKGFRRARKAASLKRSSKIPGQKKAKVIESTRVQTACQVIRDRLKMIIQRIPDIESLPEFYQDYIDVTVGVDELKKSLGALNWAVGILNQLESDYMARIKRSKPSDASHLRREAFGRISSVIKRIEGDLDFLDFAKNKLRNMPTVDLDAFTVVIAGFPNVGKSTLLRTLTGAEPEVADYPFTTKGIQIGHLERKWKRIQVIDTPGLLDRPVEDMNNIELQAMVALENIADVIMFIFDASETCGYTLESQYSLYLGIRSVFDIPVVTVFNKMDLAENVKYLEEYINMVEDPLKVSAFEGRGVSKIIKKLEGLYEKETREAHDNV”: the protein production entry is listed as “failed”. Regarding “MIIPVRRFTPNAYIMRILVSIIVFLCIGWIGRVTELEENFITQNKPVEVGTFVTFTINIPDGSEIPYVAWDFGDGSGLGRYRKSLSVSYTFTEPGVYQVYARIQGEDFPLTVIQTVYKPTQKPAPAHSSTIVIDTVHQKVWAVNTDNNSVAYIDALNNTLLSEIPVGKQPRTVALDKDGNAWVANEEDASISVIAAATGQVLQTIILPYASRPYGICFDPQKDFCYVTLQGTGELVKIEAIGREIVESVHVGRSPRGIAVTSDGSQMLVTQFISPEENGLVRLIDTKTMHVQQEIVLAFDVTPDFEDRGRGVPNFLSSITITPDGTEAWVPSKKDNTARGMFRDGLALEFDNTVRTIVSRIDLSTMTENSQMRTDINDADMACAVEFSPYGNIAFVALQGVNKITMIDVASNSRLGLLDSTGLAPQGLVINADGSRLFVHNFLTRTVKVFNTEDIVLSNNFTPVVAATISTIITEKLAPQVLEGKQIFYNAADERMTFAGYISCASCHLDGASDERVWDFTDRGEGFRNTHSLLGRGGMDMGNVHWTSNFDEIQDFENDMRNGFKGKGFLPDAVFALVSDPLGNPKAGLSRELDALAAYVTSLNKVHASPYRNNDGSLTADGIEGEILFQELGCGSCHAGQDFTDRKTGVLHDVGTEQPSSGERRTLALTGFGTPTLKGIWETAPYLHDGSALTLKDVLVTRNAEKKHGDLSNLTETELDKLVAYLLQIDDNQDAVITALLFPIKREFVAMRIFPNPASESANVQLTNIVKSSGTIRIYNVIGHLLMTVLVEGMNEINLDVSQLNSGVYVVEYSDDTSKYSQKMVIQ”, the protein production entry is recorded as “failed”.

The values are drawn from a protein production outcome set (Wang et al. 2014).
